The values that follow come from patent publication US20220363757A1.

This experiment deals with cynomolgus LAG-3 ECD human IgG1 Fc fusion (cynomolgus; human), P18627. The experiment is described as follows: SPR, Fab over captured LAG-3 ECD-Fc.
cynomolgus LAG-3 ECD human IgG1 Fc fusion (cynomolgus; human), P18627, sequence (P18627 other isoform, or with tags, fused parts or gaps, form in doubt): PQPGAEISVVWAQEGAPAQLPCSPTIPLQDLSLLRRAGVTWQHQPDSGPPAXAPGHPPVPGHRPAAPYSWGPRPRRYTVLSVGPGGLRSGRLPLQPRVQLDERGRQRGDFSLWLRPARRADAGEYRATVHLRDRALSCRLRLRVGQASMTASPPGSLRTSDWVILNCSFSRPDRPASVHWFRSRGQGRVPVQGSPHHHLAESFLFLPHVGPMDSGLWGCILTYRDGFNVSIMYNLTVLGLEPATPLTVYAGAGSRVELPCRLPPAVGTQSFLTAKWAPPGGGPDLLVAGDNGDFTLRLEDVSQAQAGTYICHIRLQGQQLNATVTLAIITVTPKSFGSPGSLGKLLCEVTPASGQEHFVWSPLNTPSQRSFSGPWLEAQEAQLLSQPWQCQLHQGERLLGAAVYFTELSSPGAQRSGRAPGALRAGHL

B1: Fab fragment of antibody 15431 (Fab, not shown: a dimerising Fc or GST)
heavy: QVQLQQSGPGLVKPSQTLSLTCAISGDSVSSNSAAWNWIRQSPSRGLEWLGRTYYRSKWYNDYAVSVKSRITINPDTSKNQFSLQLNSVTPEDTAVYYCARDDDWNDFDYWGQGTLVTVSS
light: not shown
B1: the Kd was determined as 120 nM, the koff was determined as 0.0068 s⁻¹ and the association rate constant (kon) worked out at 59000 M⁻¹ s⁻¹.

B2: Fab fragment of antibody 15011 (Fab, not shown: a dimerising Fc or GST)
heavy: EVQLLESGGGLVQPGGSLRLSCAASGFDFRSYAMMWVRQAPGKGLEWVGGINGEVGGSNTYYAPAVKGRATISRDNSKNTLYLQMNSLRAEDTAVYYCVKGAGACGICNDDIDAWGQGTLVTVSS
light: SYELTQDPAVSVALGQTVRITCSGAGSYAGSYYYGWHQQKPGQAPVTVIYDNDKRPSNIPDRFSGSSSGNTASLTITGAQAEDEADYYCGSTNDNDDGGLFGSGTKVTVLGQPKANPTVTLFPPSSEELQANKATLVCLISDFYPGAVTVAWKADGSPVKAGVETTKPSKQSNNKYAASSYLSLTPEQWKSHRSYSCQVTHEGSTVEKTVAPTECS
B2: the Kd amounted to 35 nM, the koff was determined as 0.0025 s⁻¹ and the kon is 70000 M⁻¹ s⁻¹.

B3: Fab fragment of antibody 15532 (Fab, not shown: a dimerising Fc or GST)
heavy: QVQLQQWGAGLLRPSETLSLTCAVYGESFSGYYWNWIRQPPGKGLEWIGEINHSGSTNYNPSLKSRVTISVDTSKTQFSLKLSSVTAADTAVYYCARGWDLLDWNDYWNEYWGQGTLVTVSS
light: not shown
For B3, the Kd was 68 nM, the koff was determined as 0.0048 s⁻¹ and the kon came out at 71000 M⁻¹ s⁻¹.
